Where two headings read alike, the source gives them in different places.
Experiments:
PKR (Homo sapiens) = PKR (Homo sapiens) (UniProt P19525); settings: cited from earlier work
AUC [1] = target: the molecule itself; experiment: AUC
AUC [2] = target: the molecule itself; experiment: AUC; remark: listed apart in the source

In the case of PKR (from UniProt P19525), the Kd (PKR (Homo sapiens)) is listed as 500 µM.

B1: PKRΔVB (human PKR with the whole interdomain linker, variable and basic regions, deleted) (enzyme, UniProt P19525 1-551, looked up)
chain: MAGDLSAGFFMEELNTYRQKQGVVLKYQELPNSGPPHDRRFTFQVIIDGREFPEGEGRSKKEAKNAAAKLAVEILNKEKKAVSPLLLTTTNSSEGLSMGNYIGLINRIAQKKRLTVNYEQCASGVHGPEGFHYKCKMGQKEYSIGTGSTKQEAKQLAAKLAYLQILETKYTVDKRFGMDFKEIELIGSGGFGQVFKAKHRIDGKTYVIKRVKYNNEKAEREVKALAKLDHVNIVHYNGCWDGFDYDPETSDDSLESSDYDPENSKNSSRSKTKCLFIQMEFCDKGTLEQWIEKRRGEKLDKVLALELFEQITKGVDYIHSKKLIHRDLKPSNIFLVDTKQVKIGDFGLVTSLKNDGKRTRSKGTLRYMSPEQISSQDYGKEVDLYALGLILAELLHVCDTAFETSKFFTDLRDGIISDIFDKKEKTLLQKLLSKKPEDRPNTSEILRTLTVWKKSPEKNERHTC
With B1 the Kd (AUC [1]) was 1730 µM and the “stoichiometry N” value (AUC [1]) was 2.

B2: PKRΔV (human PKR with the variable region of the interdomain linker deleted) (enzyme, UniProt P19525 1-551, looked up)
chain: MAGDLSAGFFMEELNTYRQKQGVVLKYQELPNSGPPHDRRFTFQVIIDGREFPEGEGRSKKEAKNAAAKLAVEILNKEKKAVSPLLLTTTNSSEGLSMGNYIGLINRIAQKKRLTVNYEQCASGVHGPEGFHYKCKMGQKEYSIGTGSTKQEAKQLAAKLAYLQILMNGLRNNQRKAKRSLAPRFDLPDMKETKYTVDKRFGMDFKEIELIGSGGFGQVFKAKHRIDGKTYVIKRVKYNNEKAEREVKALAKLDHVNIVHYNGCWDGFDYDPETSDDSLESSDYDPENSKNSSRSKTKCLFIQMEFCDKGTLEQWIEKRRGEKLDKVLALELFEQITKGVDYIHSKKLIHRDLKPSNIFLVDTKQVKIGDFGLVTSLKNDGKRTRSKGTLRYMSPEQISSQDYGKEVDLYALGLILAELLHVCDTAFETSKFFTDLRDGIISDIFDKKEKTLLQKLLSKKPEDRPNTSEILRTLTVWKKSPEKNERHTC
In the case of B2, the Kd (AUC [2]) is reported as 1100 µM and the “stoichiometry N” value (AUC [2]) is reported as 2.

From PMC4718896 (Biochemistry, 2015)
